Numbering of substitutions follows the chain as printed.
Key:
[1] = test system: human gamma glutamyl hydrolase (hGH); test: Activity of baculovirus-expressed hGH mutants on methotrexate polyglutamates; assay type: biochemical; details: mutants expressed in the baculovirus system
Source text: This model for the active site of hGH has been tested by preparing the Cys110Ala, His220Ala, Glu222Ala, His171Ala, and His171Asn mutants of hGH. The mutants were expressed in the baculovirus system used for active hGH to facilitate the rapid expression and purification of the proteins. The mutant proteins were characterized for activity on methotrexate polyglutamates. […] The role of His171 in hGH has been examined by preparing the mutant His171Ala and the more conservative mutation His171Asn.

[2] = molecular target: T1, human gamma glutamyl hydrolase (hGH) (Homo sapiens, UniProt Q92820, H195A); test: Activity of His 171 to Ala hGH mutant from E. coli expression system; assay type: biochemical
T1 construct: A cDNA encoding the 294 amino acid mature form of hGH protein with an N-terminal methionine preceding the first arginine residue; added N-terminal methionine (start codon) (N); made in house; host or cells: E. coli
T1 sequence (Q92820 25-318 H195A): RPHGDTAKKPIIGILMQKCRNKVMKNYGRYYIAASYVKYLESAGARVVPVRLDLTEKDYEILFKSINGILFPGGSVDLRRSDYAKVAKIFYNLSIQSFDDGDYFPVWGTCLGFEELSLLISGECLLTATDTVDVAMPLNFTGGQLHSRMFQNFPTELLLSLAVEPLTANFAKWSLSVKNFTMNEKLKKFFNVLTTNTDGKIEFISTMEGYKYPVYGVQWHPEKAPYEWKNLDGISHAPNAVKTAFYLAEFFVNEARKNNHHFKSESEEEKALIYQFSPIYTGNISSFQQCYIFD
Source text: CPS contains two domains and catalyzes the synthesis of carbamoyl phosphate from bicarbonate, glutamine, and two molecules of MgATP. The smaller subunit is the site of glutamine hydrolysis to produce ammonia for deliver to the larger subunit. In agreement with the site directed mutagenesis study described above, the model predicts that Cys110 in hGH is analogous to Cys 269 in CPS, which functions as the active site nucleophile attacking the γ-carbonyl of glutamine to form a glutamyl thioester intermediate (Thoden et al. 1998). The model also predicts that His 220 and Glu 222 in hGH are the other two amino acids in the catalytic triad, corresponding to His 353 and Glu 355 in CPS. His 220 and Glu 222 are conserved in the human, rat and mouse glutamyl hydrolase sequences. In the proposed model for hGH, His 220 would activate Cys 110 and Glu 222 would stabilize the resulting positively charged imidizolium cation. […] His 312 in CPS points away from the catalytic triad and is involved in substrate binding not catalysis. When His 312 in CPS was conservatively mutated to Asn, the Km for the substrate was increased 200-fold (Miran et al. 1991). […] Further reinforcing evidence for this alignment model was obtained by running the Pfam HMM search program (Sonnhammer et al. 1998). The Pfam result has an E-value of 0.13 with the GATase model of class-I glutamine amidotransferases. […]

B1: His171Ala: hGH mutant with His 171 changed to Ala (protein)
chain: T1 sequence (Q92820 25-318 H195A) with K242N, T243P, N258K
For B1, the “Activity on methotrexate tetraglutamate” value [1] was “inactive” and the “hGH activity (in words)” value [2] was “lack of activity”.

From patent publication US6699683B1, “Active site of human gamma glutamy hydrolase” (Health Research Incorporated, priority 1996, dated 2004)
